20 molecules from PMC6555819, “Comprehensive study of nuclear receptor DNA binding provides a revised framework for understanding receptor specificity” can be followed below.

The labels stand for the following.
B1: NRC3_random_hg19_406_o1 (dsDNA)
DNA 1: GCGAAGAACCTCCAAACTGTTCTCCATGGTAGTTGTGCGATTGACAGCGTAGAATGAAGG
DNA 2: CCTTCATTCTACGCTGTCAATCGCACAACTACCATGGAGAACAGTTTGGAGGTTCTTCGC
B2: NRC3_wobSeed37_DR1_G22A_o1 (dsDNA)
DNA 1: GCCGTCCAAGGTCAAAGGTCAATGAAGAGATGACGGGCGATTGACAGCGTAGAATGAAGG
DNA 2: CCTTCATTCTACGCTGTCAATCGCCCGTCATCTCTTCATTGACCTTTGACCTTGGACGGC
B3: NRC3_wobSeed13_DR0_G21C_o1 (dsDNA)
DNA 1: GCCGTCCAAGGTCAAGGTCACTGAAAGAGACTCGAAGCGATTGACAGCGTAGAATGAAGG
DNA 2: CCTTCATTCTACGCTGTCAATCGCTTCGAGTCTCTTTCAGTGACCTTGACCTTGGACGGC
B4: NRC3_random_hg19_397_o1 (dsDNA)
DNA 1: GCGGTGTCGTGTGCCTGTGATCCCAGCTACGCAGGCGCGATTGACAGCGTAGAATGAAGG
DNA 2: CCTTCATTCTACGCTGTCAATCGCGCCTGCGTAGCTGGGATCACAGGCACACGACACCGC
B5: NRC3_random_hg19_173_o1 (dsDNA)
DNA 1: GCATCCACCACCATGCAGAGGCAAGAATGGTCAGGCGCGATTGACAGCGTAGAATGAAGG
DNA 2: CCTTCATTCTACGCTGTCAATCGCGCCTGACCATTCTTGCCTCTGCATGGTGGTGGATGC
B6: NRC3_random_hg19_10_o1 (dsDNA)
DNA 1: GCAGCCTCCTGTTGGGTGGTCTGGTCCACCTCCTCAGCGATTGACAGCGTAGAATGAAGG
DNA 2: CCTTCATTCTACGCTGTCAATCGCTGAGGAGGTGGACCAGACCACCCAACAGGAGGCTGC
B7: NRC3_wobSeed133_DR5_T19A_o1 (dsDNA)
DNA 1: GCCGTCCAAGGTCAATGCAAGGTCAGTGAAAGCATTGCGATTGACAGCGTAGAATGAAGG
DNA 2: CCTTCATTCTACGCTGTCAATCGCAATGCTTTCACTGACCTTGCATTGACCTTGGACGGC
B8: NRC3_random_hg19_371_o1 (dsDNA)
DNA 1: GCTTAAGGATGGACCATTGGCTAAAGCAATGTCAAAGCGATTGACAGCGTAGAATGAAGG
DNA 2: CCTTCATTCTACGCTGTCAATCGCTTTGACATTGCTTTAGCCAATGGTCCATCCTTAAGC
B9: NRC3_wobSeed114_DR4_G17T_o1 (dsDNA)
DNA 1: GCAATACAGGGTCATCTTAGGCCAGAGTACGCACAGGCGATTGACAGCGTAGAATGAAGG
DNA 2: CCTTCATTCTACGCTGTCAATCGCCTGTGCGTACTCTGGCCTAAGATGACCCTGTATTGC
B10: NRC3_wobSeed141_DR5_T11G_o1 (dsDNA)
DNA 1: GCAGTCAAAGGTCAGGACGAGGTAACGTAAAGCACGGCGATTGACAGCGTAGAATGAAGG
DNA 2: CCTTCATTCTACGCTGTCAATCGCCGTGCTTTACGTTACCTCGTCCTGACCTTTGACTGC
B11: NRC3_wobSeed101_DR4_C18A_o1 (dsDNA)
DNA 1: GCCCTTACGGGTCACTCAAGGTTATAGCATCGGAGTGCGATTGACAGCGTAGAATGAAGG
DNA 2: CCTTCATTCTACGCTGTCAATCGCACTCCGATGCTATAACCTTGAGTGACCCGTAAGGGC
B12: NRC3_random_hg19_16_o1 (dsDNA)
DNA 1: GCGTTGTATCGTGTTATGTATGAGAGTCAGGATCTTGCGATTGACAGCGTAGAATGAAGG
DNA 2: CCTTCATTCTACGCTGTCAATCGCAAGATCCTGACTCTCATACATAACACGATACAACGC
B13: NRC3_random_hg19_180_o1 (dsDNA)
DNA 1: GCCAAGATAACCAGCTTATCTATCAGTTGGAGCAGAGCGATTGACAGCGTAGAATGAAGG
DNA 2: CCTTCATTCTACGCTGTCAATCGCTCTGCTCCAACTGATAGATAAGCTGGTTATCTTGGC
B14: NRC3_wobSeed103_DR4_G23C_o1 (dsDNA)
DNA 1: GCGCATATAGGTAATACAAGGTCAAAGTCCGATTGTGCGATTGACAGCGTAGAATGAAGG
DNA 2: CCTTCATTCTACGCTGTCAATCGCACAATCGGACTTTGACCTTGTATTACCTATATGCGC
B15: NRC3_random_hg19_346_o1 (dsDNA)
DNA 1: GCGCCTTCTGCTACAGGGCAAAGGTGGCACACAAAGGCGATTGACAGCGTAGAATGAAGG
DNA 2: CCTTCATTCTACGCTGTCAATCGCCTTTGTGTGCCACCTTTGCCCTGTAGCAGAAGGCGC
B16: NRC3_wobSeed120_DR4_G20A_o1 (dsDNA)
DNA 1: GCCCGAGTAGGTTACGAGGAGGCATTCAGTGCGAATGCGATTGACAGCGTAGAATGAAGG
DNA 2: CCTTCATTCTACGCTGTCAATCGCATTCGCACTGAATGCCTCCTCGTAACCTACTCGGGC
B17: NRC3_wobSeed109_DR4_G25A_o1 (dsDNA)
DNA 1: GCCGTCCAAGGTCATAGGAGGTCAATGAAGACAGATGCGATTGACAGCGTAGAATGAAGG
DNA 2: CCTTCATTCTACGCTGTCAATCGCATCTGTCTTCATTGACCTCCTATGACCTTGGACGGC
B18: NRC3_wobSeed109_DR4_G17T_o1 (dsDNA)
DNA 1: B17 DNA 1 with G17T, A25G
DNA 2: B17 DNA 2 with T36C, C44A
B19: NRC3_random_hg19_113_o1 (dsDNA)
DNA 1: GCGAGATTCCAGATGAGAACTGCTCAGCCAAACTCTGCGATTGACAGCGTAGAATGAAGG
DNA 2: CCTTCATTCTACGCTGTCAATCGCAGAGTTTGGCTGAGCAGTTCTCATCTGGAATCTCGC
B20: NRC3_random_hg19_222_o1 (dsDNA)
DNA 1: GCGAAGCATTCTAAGAAACTTCTTCGTGATGTGTGTGCGATTGACAGCGTAGAATGAAGG
DNA 2: CCTTCATTCTACGCTGTCAATCGCACACACATCACGAAGAAGTTTCTTAGAATGCTTCGC

Residue numbers refer to the chain shown, from its start.

Sequence of RXRa (P19793 whole entry): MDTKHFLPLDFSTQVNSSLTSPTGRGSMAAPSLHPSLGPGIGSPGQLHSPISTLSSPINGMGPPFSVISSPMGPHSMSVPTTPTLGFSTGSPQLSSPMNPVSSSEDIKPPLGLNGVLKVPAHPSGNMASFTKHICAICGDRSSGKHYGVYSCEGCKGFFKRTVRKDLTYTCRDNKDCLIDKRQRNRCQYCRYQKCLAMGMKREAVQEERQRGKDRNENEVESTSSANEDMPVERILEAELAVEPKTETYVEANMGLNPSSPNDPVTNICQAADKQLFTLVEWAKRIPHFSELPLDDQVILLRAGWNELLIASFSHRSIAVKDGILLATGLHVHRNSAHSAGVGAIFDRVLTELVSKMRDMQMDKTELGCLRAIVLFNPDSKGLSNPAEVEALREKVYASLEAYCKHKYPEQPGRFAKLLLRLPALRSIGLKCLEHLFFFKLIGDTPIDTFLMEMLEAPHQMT
Sequence of RARg:RXRa (P13631 whole entry, chain 1 of 2): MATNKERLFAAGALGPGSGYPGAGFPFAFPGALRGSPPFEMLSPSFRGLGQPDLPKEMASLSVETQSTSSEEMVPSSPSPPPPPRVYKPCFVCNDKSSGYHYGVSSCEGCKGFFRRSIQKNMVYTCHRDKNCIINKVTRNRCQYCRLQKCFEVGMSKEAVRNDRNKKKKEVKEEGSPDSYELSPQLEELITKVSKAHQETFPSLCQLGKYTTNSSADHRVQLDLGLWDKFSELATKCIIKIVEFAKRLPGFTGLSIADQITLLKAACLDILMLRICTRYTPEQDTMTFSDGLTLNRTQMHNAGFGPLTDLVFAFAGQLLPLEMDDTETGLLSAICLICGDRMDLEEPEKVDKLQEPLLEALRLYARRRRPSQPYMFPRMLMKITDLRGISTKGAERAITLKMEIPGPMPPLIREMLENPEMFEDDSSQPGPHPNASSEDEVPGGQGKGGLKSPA
Sequence of RARg:RXRa (P19793 whole entry, chain 2 of 2): as the sequence (P19793 whole entry) above
Sequence of PPARa:RXRa (Q07869 whole entry, chain 1 of 2): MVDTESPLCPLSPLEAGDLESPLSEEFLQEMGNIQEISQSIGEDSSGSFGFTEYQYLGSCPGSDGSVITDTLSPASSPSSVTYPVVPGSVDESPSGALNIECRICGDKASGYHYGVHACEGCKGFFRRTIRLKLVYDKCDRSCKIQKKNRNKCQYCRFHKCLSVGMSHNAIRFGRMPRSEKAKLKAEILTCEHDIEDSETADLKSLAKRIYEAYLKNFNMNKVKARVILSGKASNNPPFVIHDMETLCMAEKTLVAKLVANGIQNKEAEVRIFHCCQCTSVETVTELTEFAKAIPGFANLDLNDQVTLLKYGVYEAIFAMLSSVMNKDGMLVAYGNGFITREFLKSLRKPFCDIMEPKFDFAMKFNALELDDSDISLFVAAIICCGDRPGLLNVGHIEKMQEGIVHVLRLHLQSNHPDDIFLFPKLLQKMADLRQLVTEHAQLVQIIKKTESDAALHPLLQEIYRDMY
Sequence of PPARa:RXRa (P19793 whole entry, chain 2 of 2): as the sequence (P19793 whole entry) above
Sequence of RARb:RXRa (P10826 whole entry, chain 1 of 2): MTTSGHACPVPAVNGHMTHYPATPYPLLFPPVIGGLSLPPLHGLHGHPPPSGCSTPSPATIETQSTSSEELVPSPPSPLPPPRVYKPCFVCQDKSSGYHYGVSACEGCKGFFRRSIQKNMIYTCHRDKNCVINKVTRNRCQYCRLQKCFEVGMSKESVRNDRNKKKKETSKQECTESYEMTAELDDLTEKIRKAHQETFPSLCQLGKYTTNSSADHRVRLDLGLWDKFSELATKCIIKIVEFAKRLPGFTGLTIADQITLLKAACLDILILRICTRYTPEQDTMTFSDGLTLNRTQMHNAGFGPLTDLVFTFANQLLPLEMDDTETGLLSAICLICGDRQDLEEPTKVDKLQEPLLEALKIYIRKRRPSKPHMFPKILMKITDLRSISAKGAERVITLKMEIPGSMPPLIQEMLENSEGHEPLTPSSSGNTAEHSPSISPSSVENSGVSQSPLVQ
Sequence of RARb:RXRa (P19793 whole entry, chain 2 of 2): as the sequence (P19793 whole entry) above
Sequence of LXRb:RXRa (P55055 whole entry, chain 1 of 2): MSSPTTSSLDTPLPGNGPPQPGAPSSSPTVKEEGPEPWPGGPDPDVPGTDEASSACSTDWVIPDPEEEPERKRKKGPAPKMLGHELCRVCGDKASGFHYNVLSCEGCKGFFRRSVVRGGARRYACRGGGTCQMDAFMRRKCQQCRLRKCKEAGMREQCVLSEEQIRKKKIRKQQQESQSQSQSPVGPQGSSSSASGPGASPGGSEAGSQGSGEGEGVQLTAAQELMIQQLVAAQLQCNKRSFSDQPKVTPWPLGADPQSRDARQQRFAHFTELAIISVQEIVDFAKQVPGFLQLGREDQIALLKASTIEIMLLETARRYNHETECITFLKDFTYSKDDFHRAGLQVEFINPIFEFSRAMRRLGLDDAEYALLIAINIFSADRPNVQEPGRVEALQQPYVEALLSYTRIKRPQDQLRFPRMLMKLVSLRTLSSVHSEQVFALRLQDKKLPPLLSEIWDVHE
Sequence of LXRb:RXRa (P19793 whole entry, chain 2 of 2): as the sequence (P19793 whole entry) above
Sequence of FXR:RXRa (Q96RI1 whole entry, chain 1 of 2): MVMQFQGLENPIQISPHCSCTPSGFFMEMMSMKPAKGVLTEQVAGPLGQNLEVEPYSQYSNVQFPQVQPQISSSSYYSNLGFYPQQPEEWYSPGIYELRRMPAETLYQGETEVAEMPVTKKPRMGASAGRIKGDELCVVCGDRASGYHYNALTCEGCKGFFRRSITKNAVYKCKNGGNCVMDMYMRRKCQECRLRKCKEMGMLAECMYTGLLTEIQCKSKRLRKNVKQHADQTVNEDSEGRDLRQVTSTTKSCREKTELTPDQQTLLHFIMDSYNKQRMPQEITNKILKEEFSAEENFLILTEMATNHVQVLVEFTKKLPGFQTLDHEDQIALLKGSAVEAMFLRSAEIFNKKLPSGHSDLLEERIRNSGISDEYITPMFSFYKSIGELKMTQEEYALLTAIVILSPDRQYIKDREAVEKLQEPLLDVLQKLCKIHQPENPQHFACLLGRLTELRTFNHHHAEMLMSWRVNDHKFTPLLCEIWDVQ
Sequence of FXR:RXRa (P19793 whole entry, chain 2 of 2): as the sequence (P19793 whole entry) above
Sequence of VDR:RXRa (P11473 whole entry, chain 1 of 2): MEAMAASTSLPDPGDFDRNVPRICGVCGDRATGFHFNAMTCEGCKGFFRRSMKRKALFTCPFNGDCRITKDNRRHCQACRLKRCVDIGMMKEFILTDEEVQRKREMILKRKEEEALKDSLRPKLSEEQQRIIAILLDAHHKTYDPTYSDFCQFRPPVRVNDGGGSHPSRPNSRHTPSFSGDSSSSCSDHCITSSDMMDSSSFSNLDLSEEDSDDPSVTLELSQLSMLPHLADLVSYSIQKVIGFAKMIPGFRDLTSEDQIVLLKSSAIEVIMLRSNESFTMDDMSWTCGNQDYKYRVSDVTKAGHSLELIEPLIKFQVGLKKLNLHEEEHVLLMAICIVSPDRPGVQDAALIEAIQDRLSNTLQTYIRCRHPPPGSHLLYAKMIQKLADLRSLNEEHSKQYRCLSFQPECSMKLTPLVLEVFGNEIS
Sequence of VDR:RXRa (P19793 whole entry, chain 2 of 2): as the sequence (P19793 whole entry) above

The first series concerns the target RXRa (Homo sapiens, UniProt P19793). Briefly: no ligand; PBM; 180 nM; PBS pH 7.4, 2% milk, 0.02% Triton X-100, 1 mM DTT, BSA, 0.4 mg/ml salmon testes DNA. The note with it: tags: His cleaved; chain copies: 2; label: surface-attached array probe.
As to B1, the binding signal is -0.04 PBM z-score against 500 random probes.

For B2, the binding signal is 10.7 PBM z-score against 500 random probes.

With B3, the binding signal was 7.81 PBM z-score against 500 random probes.

For B4, the binding signal is -0.17 PBM z-score against 500 random probes.

As for B5, the binding signal is 0.16 PBM z-score against 500 random probes.

Take B6: the binding signal is -1.64 PBM z-score against 500 random probes.

In a further series the target is THRa:RXRa (Homo sapiens, UniProt P10827;P19793 full;full). Briefly: no ligand; PBM; 90 nM : 90 nM RXRa; PBS pH 7.4, 2% milk, 0.02% Triton X-100, 1 mM DTT, BSA, 0.4 mg/ml salmon testes DNA. Conditions: tags: His kept;His cleaved; copies: 1;1; label: surface-attached array probe.
Sequence of THRa:RXRa (P10827 other isoform, or with tags, fused parts or gaps, chain 1 of 2): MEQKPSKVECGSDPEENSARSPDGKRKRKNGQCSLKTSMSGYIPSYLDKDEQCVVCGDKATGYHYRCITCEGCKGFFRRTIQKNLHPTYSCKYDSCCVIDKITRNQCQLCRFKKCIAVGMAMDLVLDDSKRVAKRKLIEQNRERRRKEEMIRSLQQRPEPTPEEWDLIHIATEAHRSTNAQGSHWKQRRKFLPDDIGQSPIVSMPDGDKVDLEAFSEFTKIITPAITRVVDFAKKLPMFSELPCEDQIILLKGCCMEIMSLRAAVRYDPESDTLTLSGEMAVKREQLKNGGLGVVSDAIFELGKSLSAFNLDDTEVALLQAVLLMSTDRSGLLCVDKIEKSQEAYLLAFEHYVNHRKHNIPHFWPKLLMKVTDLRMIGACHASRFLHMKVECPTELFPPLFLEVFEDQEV
Sequence of THRa:RXRa (P19793 whole entry, chain 2 of 2): as the sequence (P19793 whole entry) above
In the case of B1, the binding signal was -0.25 PBM z-score against 500 random probes.

With B2, the binding signal is 5.12 PBM z-score against 500 random probes.

In the case of B7, the binding signal is 5 PBM z-score against 500 random probes.

Take B8: the binding signal was -0.29 PBM z-score against 500 random probes.

With B3, the binding signal is 4.85 PBM z-score against 500 random probes.

With B4, the binding signal was -0.32 PBM z-score against 500 random probes.

Turning to B9, the binding signal is 5.49 PBM z-score against 500 random probes.

Take B10: the binding signal was 4.79 PBM z-score against 500 random probes.

On to B11, for which the binding signal is 5.41 PBM z-score against 500 random probes.

With B5, the binding signal is 0.01 PBM z-score against 500 random probes.

With B12, the binding signal is 0.16 PBM z-score against 500 random probes.

As for B13, the binding signal was -0.68 PBM z-score against 500 random probes.

As to B6, the binding signal was -1.74 PBM z-score against 500 random probes.

Turning to B14, the binding signal was 4.92 PBM z-score against 500 random probes.

On to B15, for which the binding signal is 0.22 PBM z-score against 500 random probes.

Take B16: the binding signal was 0.17 PBM z-score against 500 random probes.

B17: the binding signal was 5.65 PBM z-score against 500 random probes.

As for B18, the binding signal is 5.58 PBM z-score against 500 random probes.

As to B19, the binding signal is -0.47 PBM z-score against 500 random probes.

B20: the binding signal was -0.74 PBM z-score against 500 random probes.

A further series has as its target RARb:RXRa (Homo sapiens, UniProt P10826;P19793 full;full). Briefly: no ligand; PBM; 270 nM : 90 nM RXRa; PBS pH 7.4, 2% milk, 0.02% Triton X-100, 1 mM DTT, BSA, 0.4 mg/ml salmon testes DNA. Conditions: tags: His kept;His cleaved; copies: 1;1; label: surface-attached array probe. The gist of the method: (§1)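 Binding z-scores were set against random background probes. The data came from custom Agilent 4×180K protein-binding microarrays carrying double-stranded probes with 34-nt variable regions, incubated 1 h with ligand-free nuclear receptor dimers. Partner-specific antibodies detected binding, and scanned fluorescence was regression-normalized.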
As to B7, the binding signal is 5.87 PBM z-score against 500 random probes.

For the molecule B3, the binding signal was 5.97 PBM z-score against 500 random probes.

Consider B4, for which the binding signal was 0.07 PBM z-score against 500 random probes.

As to B10, the binding signal was 5.96 PBM z-score against 500 random probes.

Regarding B6, the binding signal is -0.72 PBM z-score against 500 random probes.

Take B17: the binding signal was 5.71 PBM z-score against 500 random probes.

Consider B19, for which the binding signal was -0.57 PBM z-score against 500 random probes.

Regarding B20, the binding signal is -1.15 PBM z-score against 500 random probes.

The target of the next series is VDR:RXRa (Homo sapiens, UniProt P11473;P19793 full;full). The description is as above. Conditions: tags: His kept;His cleaved; copies: 1;1; label: surface-attached array probe. Summed up:
as §1
For the molecule B4, the binding signal was -0.31 PBM z-score against 500 random probes.

For B16, the binding signal is 0.09 PBM z-score against 500 random probes.

For another series, the target named is LXRa:RXRa (Homo sapiens, UniProt Q13133;P19793 full;full). The description is as above. Conditions: tags: His kept;His cleaved; copies: 1;1; label: surface-attached array probe. The gist of the method: as §1
Sequence of LXRa:RXRa (Q13133 whole entry, chain 1 of 2): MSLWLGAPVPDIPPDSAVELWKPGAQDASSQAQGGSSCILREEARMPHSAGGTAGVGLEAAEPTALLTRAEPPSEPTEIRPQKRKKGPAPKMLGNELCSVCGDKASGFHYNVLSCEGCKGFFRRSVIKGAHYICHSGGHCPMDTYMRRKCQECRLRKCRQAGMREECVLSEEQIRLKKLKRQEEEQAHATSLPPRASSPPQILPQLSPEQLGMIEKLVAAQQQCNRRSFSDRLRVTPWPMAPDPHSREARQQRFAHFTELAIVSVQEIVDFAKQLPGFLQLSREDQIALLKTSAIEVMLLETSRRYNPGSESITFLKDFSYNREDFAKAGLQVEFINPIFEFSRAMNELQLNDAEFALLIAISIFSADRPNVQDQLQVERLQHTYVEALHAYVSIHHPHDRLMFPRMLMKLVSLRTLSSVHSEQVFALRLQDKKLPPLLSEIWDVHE
Sequence of LXRa:RXRa (P19793 whole entry, chain 2 of 2): as the sequence (P19793 whole entry) above
For the molecule B9, the binding signal was 7.35 PBM z-score against 500 random probes.

In the case of B14, the binding signal is 7 PBM z-score against 500 random probes.

Regarding B15, the binding signal was 0 PBM z-score against 500 random probes.

In the case of B18, the binding signal was 7.97 PBM z-score against 500 random probes.

The next series deals with PPARa:RXRa (Homo sapiens, UniProt Q07869;P19793 full;full). The description is as above. Conditions: tags: GST kept;His cleaved; copies: 1;1; label: surface-attached array probe. The gist of the method:
as §1
On to B2, for which the binding signal is 7.52 PBM z-score against 500 random probes.

Take B3: the binding signal is 6.7 PBM z-score against 500 random probes.

Regarding B17, the binding signal was 6.49 PBM z-score against 500 random probes.

For B19, the binding signal is -0.69 PBM z-score against 500 random probes.

For another series, the target named is LXRb:RXRa (Homo sapiens, UniProt P55055;P19793 full;full). Described as above. The note with it: tags: His kept;His cleaved; copies: 1;1; label: surface-attached array probe. The gist of the method:
as §1
With B2, the binding signal is 7.29 PBM z-score against 500 random probes.

On to B8, for which the binding signal is -0.56 PBM z-score against 500 random probes.

B11: the binding signal was 6.18 PBM z-score against 500 random probes.

Turning to B12, the binding signal was 0.41 PBM z-score against 500 random probes.

In the case of B13, the binding signal is -0.9 PBM z-score against 500 random probes.

In the case of B17, the binding signal is 7.06 PBM z-score against 500 random probes.

A further series addresses FXR:RXRa (Homo sapiens, UniProt Q96RI1;P19793 full;full). Described as above. The note with it: tags: His kept;His cleaved; copies: 1;1; label: surface-attached array probe. Summed up:
as §1
Consider B1, for which the binding signal was -0.19 PBM z-score against 500 random probes.

With B6, the binding signal was -0.8 PBM z-score against 500 random probes.

The target of the next series is RARg:RXRa (Homo sapiens, UniProt P13631;P19793 full;full). The series is described as above. The note with it: tags: His kept;His cleaved; copies: 1;1; label: surface-attached array probe. The gist of the method:
as §1
Regarding B1, the binding signal was -0.45 PBM z-score against 500 random probes.

Take B2: the binding signal is 9.11 PBM z-score against 500 random probes.

For the molecule B7, the binding signal was 8.21 PBM z-score against 500 random probes.

Turning to B3, the binding signal was 7.34 PBM z-score against 500 random probes.

Regarding B10, the binding signal was 7.48 PBM z-score against 500 random probes.

B6: the binding signal was -1.37 PBM z-score against 500 random probes.

For B20, the binding signal was -0.49 PBM z-score against 500 random probes.
